In patent publication US11584938B2, “Plant EPSPS mutant containing L195P and S247G mutations and encoding gene and use thereof” (GEVOTO LLC, priority 2017, dated 2023):
Substitutions are numbered along the chain they refer to.

B1: G3: soybean EPSPS mutant, SEQ ID NO: 8, mutations L212(195)P and P114(101)S (protein)
chain: MAAAEKPSTAPEIVLEPIKDISGTITLPGSKSLSNRILLLAALSEGTTVVDNLLYSEDIHYMLGALRTLGLRVEDDQTTKQAIVEGCGGLFPTIKESKDEINLFLGNAGTAMRSLTAAVVAAGGNASYVLDGVPRMRERPIGDLVAGLKQLGADVDCFLGTNCPPVRVNGKGGLPGGKVKLSGSVSSQYLTALLMAAPLALGDVEIEIVDKPISVPYVEMTLKLMERFGVSVEHSGDWDKFLVHGGQKYKSPGNAFVEGDASSASYFLAGAAVTGGTITVNGCGTSSLQGDVKFAEVLEKMGAKVTWSENSVTVTGPPQDSSGQKVLQGIDVNMNKMPDVAMTLAVVALFANGQTTIRDVASWRVKETERMIAICTELRKLGATVEEGPDYCVITPPEKLNVTAIDTYDDHRMAMAFSLAACGDVPVTIKDPGCTRKTFPDYFEVLERFTRH
B2: G5: soybean EPSPS mutant, SEQ ID NO: 12, mutations S265(247)G and P114(101)S (protein)
chain: B1 chain with P212L, S265G
B3: G4: soybean EPSPS mutant, SEQ ID NO: 10, mutation S265(247)G (protein)
chain: B1 chain with S114P, P212L, S265G

Tested on: transgenic rice plants
Experiment: glyphosate resistance of the EPSPS mutant in transgenic rice plants sprayed with Roundup 41% ammonium glyphosate
Assay type: in vivo, rice (Nipponbare)
Source text: A method for detecting the glyphosate resistance of G1 (SEQ ID NO: 4) provided in Example 1, G3 (SEQ ID NO: 8) provided in Example 2, G4 (SEQ ID NO: 10) provided in Example 3, the soybean EPSPS mutant G5 (SEQ ID NO: 12) provided in Example 4, T1 (SEQ ID NO: 16) provided in Example 5, T3 (SEQ ID NO: 20) provided in Example 6, T4 (SEQ ID NO: 22) provided in Example 7, T5 (SEQ ID NO: 24) provided in Example 8, the wheat EPSPS mutant T6 (SEQ ID NO: 26) provided in Example 9, R1 (SEQ ID NO: 30) provided in Example 10, R3 (SEQ ID NO: 34) provided in Example 11, R4 (SEQ ID NO: 36) provided in Example 12, R5 (SEQ ID NO: 38) provided in Example 13, and the rice EPSPS mutant R6 (SEQ ID NO: 40) provided in Example 14 in the transgenic rice is as follows:
The plasmids (containing the EPSPS mutation gene) of the monoclonal resistant bacteria of pADV5-EPSPS in Examples 1-7 were extracted by a conventional method, followed by double enzyme digestion by Pac1 and BstEII, the small fragments were collected, and then the small fragments were ligated by using T4 DNA ligase, to the pGVP1 vectors that had undergone the same double enzyme digestion, to obtain a pGVP1-EPSPS vector having a structure as shown in FIG. 23.
EHA105 (Agrobacterium tumefaciens) competent cells were transformed by the pGVP1-EPSPS vector, and single colonies were picked up to perform bacterial colony PCR detection to identify positive strains; then the positive strains were inoculated into 1 mL of YEP culture medium containing 50 μg·mL^−1 kanamycin and 50 μg·mL^−1 rifampin to propagate, and then preserved at −80° C., or used for subsequent experiment.
400 μl of bacterium containing the target gene vector preserved at −80° C. was added to a culture dish of solid culture media containing YEP+50 μg/mL rifampin+50 μg/mL kanamycin, and cultured in the dark at 28° C. for 24 hours, then this bacterium was added to an infection culture medium, and this bacterial solution was adjusted to OD=0.2 as an infection liquid.
Sterilization and pre-culturing: mature rice (Nipponbare) seeds were manually shelled, and full seeds without bacterial plaque were selected, and sterilized according to following steps: putting the seeds into a 50 ml sterile centrifuge tube, adding 70% alcohol for disinfection for 30 seconds, pouring out the alcohol, and cleaning the seeds once with sterile water; adding 10-20 ml of 2.6% sodium hypochlorite solution for soaking and sterilizing for 20 minutes, pouring out the sodium hypochlorite solution, and soaking and cleaning the seeds with sterile water for 6-7 times, 3 minutes each time.
Induction and subculturing: the seeds were put on sterile filter paper for drying, and mature embryos were put in an induction culture medium with 12 embryos in each dish; the culture dishes were sealed with a sealing film after the operation was finished, the mature embryos were cultured in the dark at 30° C. for 21-28 days, calluses were transferred into a fresh culture medium, and continuously cultured for about 7-14 days, and spherical calluses with a size of 1-2 mm were taken as infection receptors.
the calluses were inoculated into a centrifuge tube or a culture cup, the prepared Agrobacterium tumefaciens suspension liquid was added for infection for 10 minutes, wherein the calluses were shaken several times; the bacterial solution was poured out, the calluses were taken out, and placed on sterile filter paper to suck out the surface bacterial solution (about 30 minutes); and the calluses were put on sterile filter paper in a culture dish, and cultured in the dark at 25° C. for 2-3 days.
Recovery culturing: the calluses having undergone co-culturing were inoculated in a recovery culture medium, and cultured in the dark at 30° C. for 5-7 days. First round of screening: the calluses were transferred to screening culture media 1 (S1) and cultured in the dark at 30° C. for 14 days. […]

[1] = 1× dosage 1060 g/hectare glyphosate sprayed, recorded on 10th day
[2] = 2× dosage 2120 g/hectare sprayed to plants surviving 1×, recorded 10 days later
[3] = 5× dosage 5300 g/hectare sprayed to plants surviving 2×, recorded 10 days later
[4] = 20× dosage 21200 g/hectare sprayed to plants surviving 5×, recorded 10 days later

| Molecule | %++&+++ (percentage of plant having medium and high glyphosate resistance to the total number of plants observed) [1] | number of plants denoted by + (low glyphosate resistance) [1] | number of plants denoted by ++ (medium glyphosate resistance) [1] | number of plants denoted by +++ (high glyphosate resistance) [1] | number of plants denoted by − (no glyphosate resistance) [1] | glyphosate resistance / survival of the rice transformed by the EPSPS, in words (1× glyphosate dosage) | %++&+++ (percentage of plant having medium and high glyphosate resistance to the total number of plants observed) [2] | number of plants denoted by + (low glyphosate resistance) [2] | number of plants denoted by ++ (medium glyphosate resistance) [2] | number of plants denoted by +++ (high glyphosate resistance) [2] | number of plants denoted by − (no glyphosate resistance) [2] | glyphosate resistance / survival of the rice transformed by the EPSPS, in words (2× glyphosate dosage) | &++&+++ (percentage of plant having medium and high glyphosate resistance to the total number of plants observed) [3] | number of plants denoted by + (low glyphosate resistance) [3] | number of plants denoted by ++ (medium glyphosate resistance) [3] | number of plants denoted by +++ (high glyphosate resistance) [3] | number of plants denoted by − (no glyphosate resistance) [3] | glyphosate resistance / survival of the rice transformed by the EPSPS, in words (5× glyphosate dosage) | &++&+++ (percentage of plant having medium and high glyphosate resistance to the total number of plants observed) [4] | number of plants denoted by + (low glyphosate resistance) [4] | further results |
| --- | --- | --- | --- | --- | --- | --- | --- | --- | --- | --- | --- | --- | --- | --- | --- | --- | --- | --- | --- | --- | --- |
| B1 | 57.9% | 25 | 37 | 7 | 7 | had certain resistance to glyphosate | 0.0% | 66 | 0 | 0 | 10 | some of the rice seedlings containing the soybean EPSPS mutants G3 and G5 still survived | 0.0% | 46 | 0 | 0 | 30 | some of the rice seedlings containing the soybean EPSPS mutants G3 and G5 still survived | 0.0% | 8 | number of plants denoted by ++ (medium glyphosate resistance) [4]: 0; number of plants denoted by +++ (high glyphosate resistance) [4]: 0; number of plants denoted by − (no glyphosate resistance) [4]: 68; glyphosate resistance / survival of the rice transformed by the EPSPS, in words (20× glyphosate dosage): some of the rice seedlings containing the soybean EPSPS mutants G3 and G5 still survived |
| B2 | 69.1% | 14 | 18 | 49 | 16 | had certain resistance to glyphosate | 34.0% | 43 | 23 | 10 | 21 | some of the rice seedlings containing the soybean EPSPS mutants G3 and G5 still survived | 7.2% | 53 | 6 | 1 | 37 | some of the rice seedlings containing the soybean EPSPS mutants G3 and G5 still survived | 0.0% | 24 | number of plants denoted by ++ (medium glyphosate resistance) [4]: 0; number of plants denoted by +++ (high glyphosate resistance) [4]: 0; number of plants denoted by − (no glyphosate resistance) [4]: 73; glyphosate resistance / survival of the rice transformed by the EPSPS, in words (20× glyphosate dosage): some of the rice seedlings containing the soybean EPSPS mutants G3 and G5 still survived |
| B3 | 26.5% | 23 | 9 | 4 | 13 | obviously superior to that of the rice seedlings transformed by G0 | 2.0% | 25 | 01 | 0 | 25 | some of the transgenic rice seedlings transformed by G4 still survived | 0.0% | 7 | 0 | 0 | 44 | some of the transgenic rice seedlings transformed by G4 still survived | 0.0% | 0 | number of plants denoted by ++ (medium glyphosate resistance) [4]: 0; number of plants denoted by +++ (high glyphosate resistance) [4]: 0; number of plants denoted by − (no glyphosate resistance) [4]: 51 |
